molecular target: VLA1 I-domain protein (human) (UniProt P56199); assay: KinExA, solution phase affinity, scFv
UniProt P56199, sequence (P56199 173-364 limits assumed): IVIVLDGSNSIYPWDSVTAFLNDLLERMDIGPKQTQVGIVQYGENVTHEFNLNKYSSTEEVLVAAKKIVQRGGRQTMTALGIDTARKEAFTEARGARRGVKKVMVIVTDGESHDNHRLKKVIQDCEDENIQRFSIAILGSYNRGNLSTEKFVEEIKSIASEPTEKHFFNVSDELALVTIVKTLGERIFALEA

Substance | Kd
AQC2 single chain Fv (original) (scFv) | 25 nM
AQC2 single chain Fv mutant, heavy chain D106N (scFv) | 67 nM
AQC2 single chain Fv mutant, heavy chain K64D (scFv) | 6.3 nM
AQC2 single chain Fv mutant, heavy chain K64N (scFv) | 4.1 nM
AQC2 single chain Fv mutant, heavy chain L60D (scFv) | 21 nM
AQC2 single chain Fv mutant, heavy chain R31Q (scFv) | 8.2 nM
AQC2 single chain Fv mutant, heavy chain S35N (scFv) | 39 nM
AQC2 single chain Fv mutant, heavy chain S35Q (scFv) | 37 nM
AQC2 single chain Fv mutant, heavy chain Y32F (scFv) | 34 nM
AQC2 single chain Fv mutant, light chain N30V (scFv) | 8.9 nM
AQC2 single chain Fv mutant, light chain N52R (scFv) | 17 nM

Continued by falling Kd, values first:

Kd | Substance
49 nM | AQC2 single chain Fv mutant, light chain N52K (scFv)
43 nM | AQC2 single chain Fv mutant, light chain N52H (scFv)
38 nM | AQC2 single chain Fv mutant, heavy chain K64E (scFv)
31 nM | AQC2 single chain Fv mutant, light chain H31R (scFv)
14 nM | AQC2 single chain Fv mutant, heavy chain T50V (scFv)
12 nM | AQC2 single chain Fv mutant, heavy chain K64Q (scFv)

Source: patent US20070135998A1
